Experimental data from publication PMC314469, “Protein Interaction Networks by Proteome Peptide Scanning” (PLoS Biology, 2004).

T1: Boi1 SH3 (BOI1_YEAST), P38041
T1 chain: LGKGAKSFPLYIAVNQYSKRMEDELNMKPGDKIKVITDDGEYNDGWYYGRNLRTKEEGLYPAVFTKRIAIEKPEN

T2: Yfr024 SH3 (LSB3_YEAST), P43603
T2 chain: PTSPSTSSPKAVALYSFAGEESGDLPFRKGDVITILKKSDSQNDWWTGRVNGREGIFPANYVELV

T3: Myo5 SH3 (MYO5_YEAST), Q04439
T3 chain: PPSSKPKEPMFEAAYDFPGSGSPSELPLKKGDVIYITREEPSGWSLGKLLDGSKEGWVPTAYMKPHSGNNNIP

T4: Boi2 SH3 (BOI2_YEAST), P39969
T4 chain: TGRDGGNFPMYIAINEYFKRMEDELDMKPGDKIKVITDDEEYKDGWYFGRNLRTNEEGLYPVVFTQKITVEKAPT

T5: Rvs167 SH3 (RV167_YEAST), P39743
T5 chain: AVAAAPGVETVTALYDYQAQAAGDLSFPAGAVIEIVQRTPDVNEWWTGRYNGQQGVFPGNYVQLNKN

T6: Yhr016c SH3 (YSC84_YEAST), P32793
T6 chain: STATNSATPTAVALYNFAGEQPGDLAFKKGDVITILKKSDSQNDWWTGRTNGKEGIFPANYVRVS


Key:
Experiment in all cases: SPOT array
[1] = target: T1, Boi1 SH3 (BOI1_YEAST), P38041
[2] = target: T2, Yfr024 SH3 (LSB3_YEAST), P43603
[3] = target: Sho1 SH3 (SHO1_YEAST), P40073
[4] = target: T3, Myo5 SH3 (MYO5_YEAST), Q04439
[5] = target: T4, Boi2 SH3 (BOI2_YEAST), P39969
[6] = target: T5, Rvs167 SH3 (RV167_YEAST), P39743
[7] = target: T6, Yhr016c SH3 (YSC84_YEAST), P32793

Sequence of Sho1 SH3 (SHO1_YEAST), P40073 (P40073 295-366): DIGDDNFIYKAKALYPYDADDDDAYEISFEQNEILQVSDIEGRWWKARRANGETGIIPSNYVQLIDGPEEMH

Binder	normalised SPOT signal, Boehringer light units (BLU); mean over the file's lines of this peptide [1]	normalised SPOT signal, Boehringer light units (BLU); mean over the file's lines of this peptide [2]	normalised SPOT signal, Boehringer light units (BLU); mean over the file's lines of this peptide [3]	normalised SPOT signal, Boehringer light units (BLU); mean over the file's lines of this peptide [4]	normalised SPOT signal, Boehringer light units (BLU); mean over the file's lines of this peptide [5]	normalised SPOT signal, Boehringer light units (BLU); mean over the file's lines of this peptide [6]	normalised SPOT signal, Boehringer light units (BLU); mean over the file's lines of this peptide [7]
VVAVKIIPKKPWNA [YKL048C 113-126]	85.7	42	66.9	115	30.9	47.8	14.7
VTSVKLHPNLPIVF [YOR269W 158-171]	126	93.9	58.2	137	10.5	74	8.2
VPIDKKSPFYPGLD [YCL055W 187-200]	152	32.1	20.8	150	31.1	59.1	20.7
VQIKRADPHFPHDE [YMR140W 298-311]	33.5	44.1	30.6	132	20	63.1	41.5
VRSKRLFPVRPMAT [YAL040C 535-548]	362	2610	244	504	0	309	236
VSKAKLQPAKPQFT [YAR007C 257-270]	657	96.3	61.2	252	21.4	28.5	50.6
VNTPRSVPNSPNDG [YGL209W 201-214]	28.6	662	47.4	65	28	59.3	208
VLKIKPLPYKPRGR [YER093C 584-597]	1590	426	3410	647	34.8	25	27.3

Further lines, results first:

normalised SPOT signal, Boehringer light units (BLU); mean over the file's lines of this peptide [1]	normalised SPOT signal, Boehringer light units (BLU); mean over the file's lines of this peptide [2]	normalised SPOT signal, Boehringer light units (BLU); mean over the file's lines of this peptide [3]	normalised SPOT signal, Boehringer light units (BLU); mean over the file's lines of this peptide [4]	normalised SPOT signal, Boehringer light units (BLU); mean over the file's lines of this peptide [5]	normalised SPOT signal, Boehringer light units (BLU); mean over the file's lines of this peptide [6]	normalised SPOT signal, Boehringer light units (BLU); mean over the file's lines of this peptide [7]	Binder
216	299	59.1	814	21.2	31	10.3	VSQRKKRPISPHLT [YMR118C 67-80]
1040	284	94	476	19.1	75.4	19.5	VNIGRRSPYLPLQP [YLR212C 354-367]
71.3	45.9	47.9	852	0.1	31	10.3	VTDIKLTPTDPLVG [YDL230W 193-206]
173	444	49.5	230	28.2	4.4	20.6	VLTVKMSPSLPDEI [YCR030C 726-739]
130	33	28.5	100	34.2	12.9	12.7	VVNEKEVPAEPETQ [YER120W 161-174]
